# Data: patent publication US10899824B2 (Polichem S.A., priority 2016, dated 2021)
# B1: ScFv A: single chain antibody from VL and VH of Fab A with (Gly3Ser)3 linker and His tag (protein)
# scFv: ELTQSPGTLSSSPGHRATLSCKASAPLGSNHMAWYQQKPGQAPRLLIYGASTRATGVPARFTGSGSGTDFTLTISSLQPEDFATYYCQQANSFPRTFGQGTKVEIKGGGSGGGSGGGSLESGGGVVQPGRSLRLSCAASGFTFTTFAMHWVRQAPGKGLEWLAFISYDGSNKYYADSVKGRFTISRDNSKNTLYLQMNSLRAEDTSIYYCAREVWNYADYWGQGALVTVSS
# modifications: left off: small tags and cut ends
# notes: single chain antibody from VL and VH of Fab A with (Gly3Ser)3 linker and His tag
# B2: IgGA: IgG1 Fab Ex2 converted into a full IgG1, identified as IgGA (antibody, V domains shown)
# VH: LESGGGVVQPGRSLRLSCAASGFTFTTFAMHWVRQAPGKGLEWLAFISYDGSNKYYADSVKGRFTISRDNSKNTLYLQMNSLRAEDTSIYYCAREVWNYADYWGQGALVTVSS
# VL: ELTQSPGTLSSSPGHRATLSCKASAPLGSNHMAWYQQKPGQAPRLLIYGASTRATGVPARFTGSGSGTDFTLTISSLQPEDFATYYCQQANSFPRTFGQGTKVEIK
# Legend:
# HSV-2 MS = assay: Post-HSV entry combination (synergy) assay, combination index; format: cell-based; settings: 0.5 ug/mL
# Method: Results obtained in the double curve assay were then analysed in silico in a ComboSyn analysis (CompuSyn for Drug Combinations and for General Dose-Effect Analysis by Ting-Chao Chou Memorial Sloan-Keltering Cancer Center New York, N.Y. and Nick Martin Massachustts Institute of Technology Cambridge, Mass.) to evaluate the potential synergies between IgGA and ACV, through the calculation of Combination Index (CI) and Dose Reduction Index (DRI).
# The combination index (CI) according to Chou 2006 (23) indicates nearly additive activity in the range of 0.9-1.1, synergism under 0.9, strong synergism between 0.1 and 0.3 and very strong synergism under 0.1. Values of CI over 1.1 indicate antagonism. […]
# The first step in IgGA/FOS combination activity evaluation has been the assessment of drug susceptibility for the two chosen HSV isolates already used for the Example 2. […] Combination index was calculated as in Example 2 to assess the synergism between IgGA and FOS. […]
# The first step in IgGA/PCV combination activity evaluation has been the assessment of drug susceptibility for the two chosen HSV isolates (HSV-1 LV and HSV-2 MS). […] Combination index was calculated as in Example 2 to assess the synergism between IgGA and PCV. […]
# HSV infected cells = assay: IIF binding assay of ScFv A; settings: ScFv format
# Method: ScFv gene of IgGA was successfully constructed and cloned into expression vector. ScFv format small scale production of IgGA was performed. The binding activity of ScFv A was evaluated by IIF assays on HSV infected cells.
# HSV-1 tested isolates = assay: Neutralising activity against clinical isolates (pre-incubation with virus); format: cell-based; settings: isolates with different susceptibility to Acyclovir; pre-incubation 1 h at 37° C.
# Method: (§1) The neutralising activity of FabA or IgGA was evaluated by pre-incubating (1 h at 37° C.) the IgGA with the virus and adding the IgGA/virus-mixture to cell monolayer.
# HSV-2 tested isolates = assay: as above; format: cell-based; settings: isolates with different susceptibility to Acyclovir; pre-incubation 1 h at 37° C.
# Method: as §1
# HSV-1 [1] = assay: Post adsorption inhibition of infection (plaque count); format: cell-based; settings: IgG 25 ug/mL added 30 minutes after infection; 48 h; VERO E6
# Method: (§2) Post-adsorption assays have been developed in order to speculate on possible administration of IgGA for the treatment of HSV infection, after the beginning of virus active replication within the host.
# (§3) The first step of experimental approaches, involving post-HSV adsorption evaluation of FabA or IgGA, is the infection of VERO E6 cells with a standard amount of HSV not previously treated with the FabA or IgGA.
# (§4) FabA or IgGA is added to the infected cells only after 30 minutes from virus infection. The infection is then carried out for 48 h in order to appreciate the HSV lysis plaques on VERO E6 cells. The experimental results have been evaluated by counting the plaques for infected cells receiving (post-HSV infection) FabA or IgGA compared to virus experimental positive control.
# (§5) Fabs tested in post-adsorption assays have been used at a concentration of 50 and 200 ug/mL against HSV-1 and HSV-2 tested isolates respectively*.
# (§6) IgGs tested in post-adsorption assays have been used at a concentration of 25 and 100 ug/mL against HSV-1 and HSV-2 tested isolates respectively*.
# HSV-2 [2] = assay: as above; format: cell-based; settings: IgG 100 ug/mL added 30 minutes after infection; 48 h; VERO E6
# Method: as §2, §3, §4, §5, §6
# HSV-1 [3] = assay: Cell-to-cell infection inhibition (plaque areas, post-adsorption); format: cell-based; settings: Fabs 50 ug/mL, IgGs 25 ug/mL
# Method: (§7) Post post-adsorption assays have been performed in order to evaluate the contribution of IgGA in inhibiting “cell-to-cell” infection by measuring the plaque areas resulting from infected cells treated or untreated with FabA or IgGA.
# (§8) Fabs tested in post-adsorption cell-to-cell infection inhibition assays have also been preliminary used at a concentration of 50 and 200 ug/mL against HSV-1 and HSV-2 tested isolates respectively*.
# (§9) IgGs tested in post-adsorption “cell-to-cell” infection inhibition assays have also been preliminary used at a concentration of 25 and 100 ug/mL against HSV-1 and HSV-2 tested isolates respectively*.
# HSV-2 [4] = assay: as above; format: cell-based; settings: Fabs 200 ug/mL, IgGs 100 ug/mL
# Method: as §7, §8, §9
# HSV-1 HF strain = assay: Emergence of escape mutants under selective pressure; format: cell-based; settings: selective pressure at 5 and 10 ug/mL; sequential infection rounds
# Excerpt: In order to evaluate the presence of escape virus mutants generated under selective pressure of IgGA, HSV-1 infected VERO-E6 cells have been treated with increasing concentrations of Fab A. More in details, VERO cells have been cultured in T25 flasks in the experimental conditions extensively described in the previous reports (“virus propagation techniques”). Cell monolayers have been then infected by HSV-1 HF strain using 50 pfu/mL of cell free virus. […] […] After three days the infected cell media have been collected and centrifuged in order to use medium centrifuged supernatants for new cell infection rounds. […] Five sequential identical infection rounds have been performed in the presence of the two concentrations of IgGA and control IgG above described. […] In order to test the capability of virus cultured in the constant presence of IgGA to escape from IgGA inhibitory activity the cell free supernatants belonging to the final infections in the presence of IgGA have been incubated 1 h at 37° C. in the presence of high IgGA concentration. After pre-incubation the neutralization mix has been used to infect new VERO-E6 cells.
# VERO-E6 monolayers were infected with HSV-1 HF strain using 50 pfu/mL of cell free virus. After virus complete adsorption, the infected cells were treated for three days with subinhibitory concentrations of IgGA, namely 0.2 mg/ml and 1 mg/ml. […]
molecule,measurement,setting,value
"O=C(O)P(=O)(O)O [FOS, Foscarnet]",activity of FOS alone against HSV-2,HSV-2 MS,nearly ineffective
B1,IIF signal and binding level,HSV infected cells,high IIF background signal and low binding
same,recognition of HSV infected cells in IIF,HSV infected cells,able to recognize HSV infected cells
B2,neutralisation of HSV-1 isolates,HSV-1 tested isolates,potently neutralises
same,neutralisation of HSV-2 isolates,HSV-2 tested isolates,potently neutralises
same,"post-adsorption inhibition of new infection events and infectious foci (plaques), HSV-1",HSV-1 [1],strongly inhibits
same,"post-adsorption inhibition of new infection events and infectious foci (plaques), HSV-2",HSV-2 [2],strongly inhibits
same,"inhibition of plaque areas (cell-to-cell infection), HSV-1",HSV-1 [3],even higher than Fab A inhibition activity
same,"inhibition of plaque areas (cell-to-cell infection), HSV-2",HSV-2 [4],even higher than Fab A inhibition activity
same,generation of escape mutants under selective pressure,HSV-1 HF strain,no “escape mutants” have been generated
same,generation of escape mutants under selective pressure (Example 1),HSV-1 HF strain,no “escape mutants” were generated
